PMC4131897 (Biochemistry, 2014)

T1: BjPutA (proline utilization A) (Bradyrhizobium diazoefficiens, UniProt Q89E26)
T1 sequence (Q89E26 1-999): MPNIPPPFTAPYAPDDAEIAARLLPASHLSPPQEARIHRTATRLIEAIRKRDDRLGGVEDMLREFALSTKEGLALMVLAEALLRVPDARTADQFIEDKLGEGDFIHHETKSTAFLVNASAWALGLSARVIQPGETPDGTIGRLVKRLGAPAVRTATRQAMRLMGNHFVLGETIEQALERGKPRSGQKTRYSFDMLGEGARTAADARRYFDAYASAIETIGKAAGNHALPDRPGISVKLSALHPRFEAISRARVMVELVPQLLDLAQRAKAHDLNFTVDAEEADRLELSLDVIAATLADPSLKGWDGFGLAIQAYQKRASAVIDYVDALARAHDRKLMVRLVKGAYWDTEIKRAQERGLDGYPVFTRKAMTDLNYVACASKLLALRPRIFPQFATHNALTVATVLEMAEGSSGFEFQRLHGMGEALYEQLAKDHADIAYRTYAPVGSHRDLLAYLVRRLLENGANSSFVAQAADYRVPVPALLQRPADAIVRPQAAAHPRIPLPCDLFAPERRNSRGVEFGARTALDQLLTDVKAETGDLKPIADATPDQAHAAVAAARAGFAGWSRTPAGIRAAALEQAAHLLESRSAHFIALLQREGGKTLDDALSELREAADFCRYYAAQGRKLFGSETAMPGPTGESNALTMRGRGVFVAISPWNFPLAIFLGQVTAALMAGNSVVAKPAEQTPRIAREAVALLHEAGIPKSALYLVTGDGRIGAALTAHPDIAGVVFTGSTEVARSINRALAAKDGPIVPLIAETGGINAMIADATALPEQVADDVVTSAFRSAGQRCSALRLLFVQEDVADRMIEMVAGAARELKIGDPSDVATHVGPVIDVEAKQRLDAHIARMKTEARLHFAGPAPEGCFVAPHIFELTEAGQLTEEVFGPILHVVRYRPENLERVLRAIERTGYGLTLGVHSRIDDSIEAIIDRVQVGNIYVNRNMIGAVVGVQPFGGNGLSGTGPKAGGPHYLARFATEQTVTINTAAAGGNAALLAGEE


Assays:
[1] = target: T1, BjPutA (proline utilization A); experiment: coupled PRODH-P5CDH assay, NADH formation at […] nm, substrate inhibition fit; type: biochemical; details: 0.1 mM CoQ1, 0.2 mM NAD+, 50 mM potassium phosphate pH 7.5, 25 mM NaCl
purified protein [2] = substrate: O=C(O)[C@@H]1CCCN1; experiment: purified protein; details: 250 μM CoQ1, 50 mM potassium phosphate pH 7.5, 23 °C
purified protein [3] = substrate: COC1=C(OC)C(=O)C(CC=C(C)C)=C(C)C1=O; experiment: purified protein; details: 150 mM proline, 50 mM potassium phosphate pH 7.5, 23 °C

Row | Molecule | Ki [1] [mM] | Km (purified protein [2]) [mM] | kcat (purified protein [2]) [s⁻¹] | kcat/Km (purified protein [2]) [M⁻¹ s⁻¹] | Km (purified protein [3]) [mM] | kcat (purified protein [3]) [s⁻¹] | kcat/Km (purified protein [3]) [M⁻¹ s⁻¹]
1 | O=C(O)[C@@H]1CCCN1 [proline] | 24 ± 12 |  |  |  |  |  | 
2 | BjPutA (proline utilization A) (Bradyrhizobium diazoefficiens USDA 110) (protein) MPNIPPPFTAPYAPDDAEIAARLLPASHLSPPQEARIHRTATRLIEAIRKRDDRLGGVEDMLREFALSTKEGLALMVLAEALLRVPDARTADQFIEDKLGEGDFIHHETKSTAFLVNASAWALGLSARVIQPGETPDGTIGRLVKRLGAPAVRTATRQAMRLMGNHFVLGETIEQALERGKPRSGQKTRYSFDMLGEGARTAADARRYFDAYASAIETIGKAAGNHALPDRPGISVKLSALHPRFEAISRARVMVELVPQLLDLAQRAKAHDLNFTVDAEEADRLELSLDVIAATLADPSLKGWDGFGLAIQAYQKRASAVIDYVDALARAHDRKLMVRLVKGAYWDTEIKRAQERGLDGYPVFTRKAMTDLNYVACASKLLALRPRIFPQFATHNALTVATVLEMAEGSSGFEFQRLHGMGEALYEQLAKDHADIAYRTYAPVGSHRDLLAYLVRRLLENGANSSFVAQAADYRVPVPALLQRPADAIVRPQAAAHPRIPLPCDLFAPERRNSRGVEFGARTALDQLLTDVKAETGDLKPIADATPDQAHAAVAAARAGFAGWSRTPAGIRAAALEQAAHLLESRSAHFIALLQREGGKTLDDALSELREAADFCRYYAAQGRKLFGSETAMPGPTGESNALTMRGRGVFVAISPWNFPLAIFLGQVTAALMAGNSVVAKPAEQTPRIAREAVALLHEAGIPKSALYLVTGDGRIGAALTAHPDIAGVVFTGSTEVARSINRALAAKDGPIVPLIAETGGINAMIADATALPEQVADDVVTSAFRSAGQRCSALRLLFVQEDVADRMIEMVAGAARELKIGDPSDVATHVGPVIDVEAKQRLDAHIARMKTEARLHFAGPAPEGCFVAPHIFELTEAGQLTEEVFGPILHVVRYRPENLERVLRAIERTGYGLTLGVHSRIDDSIEAIIDRVQVGNIYVNRNMIGAVVGVQPFGGNGLSGTGPKAGGPHYLARFATEQTVTINTAAAGGNAALLAGEE |  | 43 ± 5 | 3.1 ± 0.1 | 72 ± 8.6 | 0.105 ± 0.006 | 2.9 ± 0.1 | 27600 ± 1710
